Here are results for five molecules from patent US20250122280A1, “ANTI-Ly6E ANTIBODIES, IMMUNOCONJUGATES, AND USES THEREOF” (Genentech, Inc., priority 2022, published 2025).

Substitutions are numbered along the chain they refer to. Names may count otherwise.

The target in assay [1] is T1, Ly6E on cell lines known to express Ly6E (Kuramochi, NCI-H1781, HCC1569x2) (human, UniProt Q16553 21-101).
T1 sequence: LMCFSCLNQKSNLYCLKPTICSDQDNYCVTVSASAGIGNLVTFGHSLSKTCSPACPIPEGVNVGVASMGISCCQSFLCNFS
The assay is described as follows: cell-based or functional assay.

Assay [2] concerns the target T1, Ly6E on cell lines known to express …. The assay is described as follows: flow cytometry on Kuramochi cells. On the technique in general: Flow cytometry measures light scatter and fluorescence of single cells or particles in a stream.
Protocol: (§1) Cell lines were cultured as recommended by the ATCC. Prior to staining adherent lines were released by Accutase treatment, all cells were filtered and equilibrated in BD Stain buffer (BSA). […] Samples were fixed in 1% PFA (PBS) prior to analysis. Samples were assessed on a BD LSRFortessa. Following exclusion of dead cells, singlets were assessed for antibody binding using FlowJo software (FIGS. 2A-2C).
The target is the same in assay [3]. The assay is described as follows: flow cytometry on NCI-H1781 cells.
For assay [4] the target is unchanged. The assay is described as follows: flow cytometry of Fabs on NCI-H1781 cells.
Protocol: as §1

B1: chimeric (Ch) Ly6E 3A3 ThioMab drug conjugate with SN36325 (antibody, V domains shown)
VH: AVQLVEFGGGLVQPKESLKISCAASGFTFSTVAMHWVRQAPGKGLEWIARIRTKPVNYETYYADSVKGRFTISRDDSKSMVYLQMDNLKTEDAAMYYCSAPNYYDGTYSFAYWGQGTLVTVSS
VL: DIVMTQSPTSISISVGERVTMNCKASQNVGSNVDWYQQKTGQSPELLIYKASNRYTGVPGRFTGSGSGTDFTFTISNLQAEDLAVYYCMQSDTKYTFGAGTKVEIKR
modifications: engineered cysteine carrying the SN36325 (seco-CBI-dimer) linker-drug on heavy and/or light chain; position not stated
Take B1: the “potency difference from non-target control, 5 day anti-proliferation assay (CellTiter-Glo), cell line NCl-H1781” value in assay [1] is above 400 fold.

B2: chimeric anti-Ly6E antibody clone 3A3 (rat-human chimeric antibody) (antibody, human IgG1, kappa, V domains shown)
VH: B1 VH
VL: B1 VL
notes: Rat variable domains on human IgG1/kappa constant regions; also called Ch Ly6E 3A3
Turning to B2, the binding result in assay [2] was “binds”.

B3: humanized anti-Ly6E (comprising SEQ ID NOs. 3 and 5) (antibody, human IgG1, kappa, V domains shown)
VH: EVQLVESGGGLVQPGGSLKLSCAASGFTFSTVAMHWVRQASGKGLEWVGRIRTKPVNYETYYADSVKGRFTISRDDSKSTVYLQMNSLKTEDTAVYYCSAPNYYDGTYSFAYWGQGTLVTVSS
VL: DIQMTQSPSSLSASVGDRVTITCKASQNVGSNVDWYQQKPGKAPKLLIYKASNRYTGVPSRFSGSGSGTDFTFTISSLQPEDIATYYCMQSETKYTFGQGTKVEIKR
notes: also called the humanized version; 3A3.v2.D92E
With B3, in assay [3], the EC50 (read off the curve) (in general, the concentration giving half of the maximal effect) is around 2 µg/mL.

B4: Fab of humanized anti-Ly6E variant LC D92S (Fab, V domains shown)
VH: B3 VH
VL: B3 VL with E92S
notes: Fab made by proteolysis of the IgG; also called 3A3.v2.D92S
On to B4, for which, in assay [4], the 50% effective concentration (EC50 (read off the curve)) was around 10 nM.

B5: Fab of humanized anti-Ly6E variant LC D92E (Fab, V domains shown)
VH: B3 VH
VL: B3 VL
notes: Fab made by proteolysis of the IgG; also called 3A3.v2.D92E
As to B5, the “EC50 (read off the curve)” value in assay [4] is around 10 nM.
